Holding throughout (format): cell-based
Test [1] has as its system membrane lipid composition of cells. The test can be described thus: Lipidomics profiling of cells overexpressing CD95 variants (membrane lipid composition, UMAP clustering). Particulars: overexpressed using lentiviral vectors two weeks prior to lipidomics profiling. From the text:
(§1) FIG. 5: Changes of lipid composition of membranes of cells in the presence of CD95 variants. A) Shown are average mol % concentrations of the indicated lipid classes; Abbreviations: WT: wildtype CD95; KO: CD95-knockout; sM: single mutant (R171E), dM: double mutant (R192E/K193E); tM: triple mutant (R171E/R192E/K193E); PC: phosphatidylcholines; PE: phosphatidylethanolamines, PS: phosphatidylserines, PI: phosphatidylinositoles, SM: sphingomyelins, CE: cholesteryl esters. “a”X relates to acyl-X, e.g. aPC is Acyl-phosphatidylcholines; “e”X relates to Ether-X or X containing one odd-chain fatty acyl species. B) Clustering of cells based on lipid profile changes, UMAP representation. C) average cell size as cell area of cells expressing variants of CD95.
(§2) Indicated variants were overexpressed using lentiviral vectors two weeks prior to lipidomics profiling. […] Also, average cell size was decreased in cells expressing the triple mutant CD95, very similar to CD95 KO cells.

Another test relates to cell cycle. The test can be described thus: Cell cycle assessment of cells overexpressing CD95 variants. To be noted: overexpressed using lentiviral vectors two weeks prior to cell cycle assessment. An excerpt: FIG. 6: Effect of CD95 variants on cell cycle. Shown is the percentage of cells in G2, S, or G1 phase, respectively, in cell overexpressing effector polypeptides. […] Abbreviations as in FIG. 5.
Indicated variants were overexpressed using lentiviral vectors two weeks prior to cell cycle assessment.

The subject of the next test is Caspase 8 cleavage. As to the kind of experiment: Caspase-8 cleavage in protein lysates of T98G cells (apoptosis). Particulars: upon EGFR stimulation. As to the method:
FIG. 11: Impact of CD95 mutants on apoptosis (caspase-8 cleavage). Protein lysates were analysed for the level of cleaved and total caspase-8. […] Bar show, in each case from left to right, relative expression of total caspase, p44, p43, and p18.
(§3) T98G cells were serum starved, control (Co) cells were left untreated otherwise stimulated with 100 ng/ml of EGF-L for 10 mins. Protein samples were analysed by western blot for pAKT (ser 473), pEGFR and pERK and the total amount of protein (pan antibody). Relative expression of the protein was calculated where phospho-proteins were normalized to their total proteins. […] TMD is CD95 with the indicated mutation(s). Protein lysates were also analysed for the level of cleaved and total caspase (FIG. 11).

The subject of the next test is cell size. The test can be described thus: Average cell size as cell area of cells expressing CD95 variants. To be noted: lentiviral overexpression, very similar to CD95 KO cells.
Description: as §1, §2

Another test has as its system EGFR phosphorylation. The test can be described thus: Western blot, fraction of phosphorylated EGFR in cells overexpressing CD95 variants (Example 8). Particulars: lentiviral overexpression two weeks prior, untreated or 20 ng/ml CD95-ligand or 100 ng/ml EGF-L for 10 minutes. As to the method: (§4) FIG. 7: Effect of CD95 variants on cell signaling; shown is relative content in pAkt and pEGFR in cells transfected to overexpress effector polypeptides as indicated. Abbreviations as in FIG. 5.
(§5) Indicated variants were overexpressed using lentiviral vectors two weeks prior to treatment. Cells were left untreated (co) or exposed to 20 ng/ml of CD95-ligand or 100 ng/ml of EGF-L for 10 minutes and the fraction phosphorylation among total Akt and EGFR measured by Western Blot.

The subject of another test is transferrin uptake. The test can be described thus: Transferrin uptake assay (endocytotic activity), flow cytometry. Particulars: lentiviral overexpression two weeks prior, uptake after 10, 20 and 30 min. As to the method:
FIG. 8: Effect of CD95 variants on endocytotic activity of cells. Shown is the relative transferrin uptake of treated cells over time, i.e. after 10, 20, and 30 min. Abbreviations as in FIG. 5.
Indicated variants were overexpressed using lentiviral vectors two weeks prior to assessment of the endocytotic activity by a transferrin uptake assay. Transferrin uptake was assessed after the indicated time points via flow cytometry.

Test [2] concerns Akt phosphorylation (Ser 473). The test can be described thus: Western blot, fraction of phosphorylated Akt in cells overexpressing CD95 variants (Example 8). To be noted: lentiviral overexpression two weeks prior, untreated or 20 ng/ml CD95-ligand or 100 ng/ml EGF-L for 10 minutes. As to the method: as §4, §5
On the technique in general: A western blot detects proteins with antibodies after separation by electrophoresis.

The test system of a further test is EGFR activation. The test can be described thus: Western blot pEGFR relative to total EGFR in T98G cells (Example 11). Particulars: T98G cells serum starved, untreated or 100 ng/ml EGF-L for 10 mins. As to the method: (§6) FIG. 10: Impact of CD95 mutants on activation of Akt and EGFR. […] Abbreviations as in FIG. 5.
as §3

In another test the test system is AKT activation. As to the kind of experiment: Western blot pAKT (ser 473) relative to total Akt in T98G cells (Example 11). To be noted: T98G cells serum starved, untreated or 100 ng/ml EGF-L for 10 mins. As for the experimental part: as §6, §3

B1: double mutant: CD95 variant with R192E/K193E exchanges (cf. SEQ ID NO:31), expressed from lentiviral or AAV vector (protein)
chain: MLGIWTLLPLVLTSVARLSSKSVNAQVTDINSKGLELRKTVTTVETQNLEGLHHDGQFCHKPCPPGERKARDCTVNGDEPDCVPCQEGKEYTDKAHFSSKCRRCRLCDEGHGLEVEINCTRTQNTKCRCKPNFFCNSTVCEHCDPCTKCEHGIIKECTLTSNTKCKEEGSQSNLGWLCLLLLPIPLIVWVKEEEVQKTCRKHRKENQGSHESPTLNPETVAINLSDVDLSKYITTIAGVMTLSQVKGFVRKNGVNEAKIDEIKNDNVQDTAEQVQLLRNWHQLHGKKEAYDTLIKDLKKANLCTLAEKIQTIILKDITSDSENSNFRNEIQSLV
modifications: R192E/K193E double mutein (dM)
Take B1: in [1], the “changes in membrane lipid composition” value is recorded as “distinct changes in membrane lipid composition” and the “clustering of cells based on lipid profile changes (UMAP)” value is recorded as “clustered similarly”. The “effect on cell cycle (cells in G2, S or G1 phase)” value (“effect on cell cycle” for short) with cell cycle is “G1 arrest”. Also, in the test with cell cycle (listed as double mutation variant), the “effect on cell cycle” value was “strong G1 arrest”.

B2: triple mutant: CD95 variant with R171E/R192E/K193E exchanges (cf. SEQ ID NO:32), expressed from lentiviral or AAV vector (protein)
chain: MLGIWTLLPLVLTSVARLSSKSVNAQVTDINSKGLELRKTVTTVETQNLEGLHHDGQFCHKPCPPGERKARDCTVNGDEPDCVPCQEGKEYTDKAHFSSKCRRCRLCDEGHGLEVEINCTRTQNTKCRCKPNFFCNSTVCEHCDPCTKCEHGIIKECTLTSNTKCKEEGSESNLGWLCLLLLPIPLIVWVKEEEVQKTCRKHRKENQGSHESPTLNPETVAINLSDVDLSKYITTIAGVMTLSQVKGFVRKNGVNEAKIDEIKNDNVQDTAEQVQLLRNWHQLHGKKEAYDTLIKDLKKANLCTLAEKIQTIILKDITSDSENSNFRNEIQSLV
modifications: R171E/R192E/K193E triple mutein (tM)
In the case of B2, the “Caspase 8 cleavage” value in the test on Caspase 8 cleavage is “noticeable Caspase 8 cleavage”. Also, in test [1], the “changes in membrane lipid composition” value is reported as “distinct changes in membrane lipid composition” and the “clustering of cells based on lipid profile changes (UMAP)” value is listed as “very similar clustering to the KO cells”. In addition, in the test with cell size, the average cell size entry is “decreased”. In the test on cell cycle, the “effect on cell cycle” value was “G1 arrest”. In the test on cell cycle (listed as triple mutation variant), the “effect on cell cycle” value is reported as “strong G1 arrest”. For the same molecule, the “EGFR phosphorylation, fraction among total EGFR” value in the test on EGFR phosphorylation is listed as “increased EGFR phosphorylation”. In the test on transferrin uptake, the transferrin uptake result is on record as “significantly reduced transferrin uptake”. Further, in test [2], the “Akt phosphorylation (Ser 473), fraction among total Akt” value is given as “reduced Akt phosphorylation”. In addition, the “EGFR activation (pEGFR normalized to total)” value in the test with EGFR activation was “increase in the EGFR activation”. Further, in the test with AKT activation, the “level of AKT activation (pAKT ser 473 normalized to total)” value was “decrease in the level of AKT activation”.

B3: single mutant: CD95 variant with R171E exchange (cf. SEQ ID NO:30), expressed from lentiviral or AAV vector (protein)
chain: MLGIWTLLPLVLTSVARLSSKSVNAQVTDINSKGLELRKTVTTVETQNLEGLHHDGQFCHKPCPPGERKARDCTVNGDEPDCVPCQEGKEYTDKAHFSSKCRRCRLCDEGHGLEVEINCTRTQNTKCRCKPNFFCNSTVCEHCDPCTKCEHGIIKECTLTSNTKCKEEGSESNLGWLCLLLLPIPLIVWVKRKEVQKTCRKHRKENQGSHESPTLNPETVAINLSDVDLSKYITTIAGVMTLSQVKGFVRKNGVNEAKIDEIKNDNVQDTAEQVQLLRNWHQLHGKKEAYDTLIKDLKKANLCTLAEKIQTIILKDITSDSENSNFRNEIQSLV
modifications: R171E single mutein (sM)
B3: in test [1], the “clustering of cells based on lipid profile changes (UMAP)” value is listed as “clustered similarly”. Besides, the transferrin uptake entry with transferrin uptake is “significantly reduced transferrin uptake”.

The values above are taken from patent US20250136662A1, “CD95 POLYPEPTIDES” (Deutsches Krebsforschungszentrum Stiftung des öffentlichen …, priority 2021, published 2025).
